Article PMC2965252

Biological target: SF2/ASF (ΔRS domain) (UniProt Q07955 1-196)
Test: EMSA

SF2/ASF (ΔRS domain), sequence (Q07955 1-196, stated change not applied): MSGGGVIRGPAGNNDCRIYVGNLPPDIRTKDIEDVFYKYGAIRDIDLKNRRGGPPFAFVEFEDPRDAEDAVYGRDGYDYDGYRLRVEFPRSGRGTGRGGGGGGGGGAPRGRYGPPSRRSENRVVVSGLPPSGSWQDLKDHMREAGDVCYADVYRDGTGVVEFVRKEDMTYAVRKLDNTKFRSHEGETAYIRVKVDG

Q: Does GUGAUCAGGAUGCCCUUCUC (ssRNA) [CD200 exon 2 RNA with wild-type ESE] bind?
A: binds
